In patent US20140087995A1 (published 2014):
Numbered stars: 1 amine (or outer) side, 2 acyl side, 3 side chain; on linkers, the order of the positions; unused ones are H or OH. Bridge positions count the residues as written; N and C are the ends. Side chains are listed from the residue outwards. Ends that are not written are not given here. * marks the point of attachment. C20 diacid = O=C(O)CCCCCCCCCCCCCCCCCCC(=O)*; γGlu = O=C(O)[C@H](CCC(=O)[*:2])N[*:1]; AEEA = NCCOCCOCC(=O)O

T1: human amylin receptor (amylin 3(a) receptor: human calcitonin receptor co-expressed with RAMP-3) (human, UniProt P30988 25-474; O60896 24-148, limits assumed)
T1 sequence (looked up) 1: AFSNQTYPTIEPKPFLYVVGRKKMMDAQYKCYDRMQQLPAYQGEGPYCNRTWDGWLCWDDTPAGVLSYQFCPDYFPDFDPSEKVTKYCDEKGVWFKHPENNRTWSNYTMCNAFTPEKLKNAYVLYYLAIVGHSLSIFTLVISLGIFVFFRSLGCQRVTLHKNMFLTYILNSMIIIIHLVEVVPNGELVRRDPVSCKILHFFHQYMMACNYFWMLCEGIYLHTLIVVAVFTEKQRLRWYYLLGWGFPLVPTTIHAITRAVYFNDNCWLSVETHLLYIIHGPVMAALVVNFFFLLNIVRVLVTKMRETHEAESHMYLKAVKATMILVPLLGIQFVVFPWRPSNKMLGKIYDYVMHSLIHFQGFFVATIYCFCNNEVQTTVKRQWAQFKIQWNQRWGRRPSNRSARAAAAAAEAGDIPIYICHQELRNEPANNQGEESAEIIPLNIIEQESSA
T1 sequence (looked up) 2: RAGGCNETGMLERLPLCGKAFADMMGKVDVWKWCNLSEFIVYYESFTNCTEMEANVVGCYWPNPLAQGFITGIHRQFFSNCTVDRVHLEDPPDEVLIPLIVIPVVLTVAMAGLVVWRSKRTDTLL

T2: human calcitonin receptor (human, UniProt P30988 25-474)
T2 sequence (looked up): T1 sequence (looked up) 1

B1: N^ε1-[2-[2-[2-[[(4S)-4-carboxy-4-(19-carboxynonadecanoylamino)butanoyl]amino]ethoxy]ethoxy]acetyl]-[Lys14,Arg17,Pro21,Pro27,Pro31]-h-amylin (peptide)
peptide: K([AEEA-γGlu-C20 diacid])CNTATCATQRLAKFLRHSSPNFGAIPSSTPVGSNTY-NH2
modifications: disulfide 2-7; N-terminus assumed
SMILES: CC[C@H](C)[C@H](NC(=O)[C@H](C)NC(=O)CNC(=O)[C@H](Cc1ccccc1)NC(=O)[C@H](CC(N)=O)NC(=O)[C@@H]1CCCN1C(=O)[C@H](CO)NC(=O)[C@H](CO)NC(=O)[C@H](Cc1c[nH]cn1)NC(=O)[C@H](CCCNC(=N)N)NC(=O)[C@H](CC(C)C)NC(=O)[C@H](Cc1ccccc1)NC(=O)[C@H](CCCCN)NC(=O)[C@H](C)NC(=O)[C@H](CC(C)C)NC(=O)[C@H](CCCNC(=N)N)NC(=O)[C@H](CCC(N)=O)NC(=O)[C@@H](NC(=O)[C@H](C)NC(=O)[C@@H]1CSSC[C@H](NC(=O)[C@@H](N)CCCCNC(=O)COCCOCCNC(=O)CC[C@H](NC(=O)CCCCCCCCCCCCCCCCCCC(=O)O)C(=O)O)C(=O)N[C@@H](CC(N)=O)C(=O)N[C@@H]([C@@H](C)O)C(=O)N[C@@H](C)C(=O)N[C@@H]([C@@H](C)O)C(=O)N1)[C@@H](C)O)C(=O)N1CCC[C@H]1C(=O)N[C@@H](CO)C(=O)N[C@@H](CO)C(=O)N[C@H](C(=O)N1CCC[C@H]1C(=O)N[C@H](C(=O)NCC(=O)N[C@@H](CO)C(=O)N[C@@H](CC(N)=O)C(=O)N[C@H](C(=O)N[C@@H](Cc1ccc(O)cc1)C(N)=O)[C@@H](C)O)C(C)C)[C@@H](C)O
notes: also called compound 74
B2: N^ε1-[2-[2-[2-[[(4S)-4-carboxy-4-(19-carboxynonadecanoylamino)butanoyl]amino]ethoxy]ethoxy]acetyl]-[Ser14,Arg17,Pro21,Pro27,Pro31]-h-amylin (peptide)
peptide: K([AEEA-γGlu-C20 diacid])CNTATCATQRLASFLRHSSPNFGAIPSSTPVGSNTY-NH2
modifications: disulfide 2-7; N-terminus assumed
SMILES: CC[C@H](C)[C@H](NC(=O)[C@H](C)NC(=O)CNC(=O)[C@H](Cc1ccccc1)NC(=O)[C@H](CC(N)=O)NC(=O)[C@@H]1CCCN1C(=O)[C@H](CO)NC(=O)[C@H](CO)NC(=O)[C@H](Cc1c[nH]cn1)NC(=O)[C@H](CCCNC(=N)N)NC(=O)[C@H](CC(C)C)NC(=O)[C@H](Cc1ccccc1)NC(=O)[C@H](CO)NC(=O)[C@H](C)NC(=O)[C@H](CC(C)C)NC(=O)[C@H](CCCNC(=N)N)NC(=O)[C@H](CCC(N)=O)NC(=O)[C@@H](NC(=O)[C@H](C)NC(=O)[C@@H]1CSSC[C@H](NC(=O)[C@@H](N)CCCCNC(=O)COCCOCCNC(=O)CC[C@H](NC(=O)CCCCCCCCCCCCCCCCCCC(=O)O)C(=O)O)C(=O)N[C@@H](CC(N)=O)C(=O)N[C@@H]([C@@H](C)O)C(=O)N[C@@H](C)C(=O)N[C@@H]([C@@H](C)O)C(=O)N1)[C@@H](C)O)C(=O)N1CCC[C@H]1C(=O)N[C@@H](CO)C(=O)N[C@@H](CO)C(=O)N[C@H](C(=O)N1CCC[C@H]1C(=O)N[C@H](C(=O)NCC(=O)N[C@@H](CO)C(=O)N[C@@H](CC(N)=O)C(=O)N[C@H](C(=O)N[C@@H](Cc1ccc(O)cc1)C(N)=O)[C@@H](C)O)C(C)C)[C@@H](C)O
notes: also called compound 73

How the values were obtained:
[1] = target: T1, human amylin receptor (amylin 3(a) …); assay: cell-based or functional assay
[2] = target: T2, human calcitonin receptor; assay: cell-based or functional assay

Binder	hAmylin-R funct. EC50 [1]	hCTR funct. EC50 [2]
B1	0.666 nM	37.5 nM
B2	0.085 nM	0.961 nM
